Consider two molecules from US20150098945A1 (Daiichi Sankyo, published 2015).

The target in assay [1] is T1, mouse ROBO4 (pCI-mROBO4-transfected HEK293 cells) (mouse, UniProt Q8C310 28-1012).
T1 sequence: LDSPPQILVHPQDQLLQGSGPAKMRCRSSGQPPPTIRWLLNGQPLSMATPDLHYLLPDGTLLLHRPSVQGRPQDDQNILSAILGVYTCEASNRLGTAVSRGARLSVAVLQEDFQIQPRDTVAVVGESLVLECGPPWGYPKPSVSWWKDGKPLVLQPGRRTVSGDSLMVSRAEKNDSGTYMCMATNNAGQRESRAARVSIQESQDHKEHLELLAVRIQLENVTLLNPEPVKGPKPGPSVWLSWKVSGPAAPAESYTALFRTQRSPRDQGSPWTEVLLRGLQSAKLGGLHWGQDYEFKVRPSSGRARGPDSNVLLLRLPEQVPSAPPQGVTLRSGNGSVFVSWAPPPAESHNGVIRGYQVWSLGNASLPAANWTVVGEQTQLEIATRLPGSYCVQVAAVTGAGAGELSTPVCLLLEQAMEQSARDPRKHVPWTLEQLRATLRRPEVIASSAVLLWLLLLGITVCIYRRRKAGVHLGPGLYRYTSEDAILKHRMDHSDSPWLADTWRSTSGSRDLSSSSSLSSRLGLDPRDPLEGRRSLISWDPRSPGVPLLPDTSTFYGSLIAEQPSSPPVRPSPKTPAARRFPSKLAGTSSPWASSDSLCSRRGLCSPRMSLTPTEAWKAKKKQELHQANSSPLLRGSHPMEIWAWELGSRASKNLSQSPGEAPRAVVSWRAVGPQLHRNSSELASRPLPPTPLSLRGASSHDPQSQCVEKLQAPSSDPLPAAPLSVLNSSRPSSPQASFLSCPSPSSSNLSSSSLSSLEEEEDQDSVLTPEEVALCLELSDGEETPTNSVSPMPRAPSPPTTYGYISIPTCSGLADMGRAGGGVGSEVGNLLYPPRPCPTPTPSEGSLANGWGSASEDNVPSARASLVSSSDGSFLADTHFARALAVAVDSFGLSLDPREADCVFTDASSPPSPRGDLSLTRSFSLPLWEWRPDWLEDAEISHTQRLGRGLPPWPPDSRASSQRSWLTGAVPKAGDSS
As to the kind of experiment: flow cytometry (FC500), HEK293 cells transfected with pCI-mROBO4, FITC goat anti-human IgG Fc; control histogram IgG (human IgG). For orientation: A flow cytometer gives signals particle by particle.

Assay [2] concerns the target T2, full-length human ROBO4 (pCI-hROBO4-transfected HEK293/HEK293T cells) (human, UniProt Q8WZ75 28-1007).
T2 sequence: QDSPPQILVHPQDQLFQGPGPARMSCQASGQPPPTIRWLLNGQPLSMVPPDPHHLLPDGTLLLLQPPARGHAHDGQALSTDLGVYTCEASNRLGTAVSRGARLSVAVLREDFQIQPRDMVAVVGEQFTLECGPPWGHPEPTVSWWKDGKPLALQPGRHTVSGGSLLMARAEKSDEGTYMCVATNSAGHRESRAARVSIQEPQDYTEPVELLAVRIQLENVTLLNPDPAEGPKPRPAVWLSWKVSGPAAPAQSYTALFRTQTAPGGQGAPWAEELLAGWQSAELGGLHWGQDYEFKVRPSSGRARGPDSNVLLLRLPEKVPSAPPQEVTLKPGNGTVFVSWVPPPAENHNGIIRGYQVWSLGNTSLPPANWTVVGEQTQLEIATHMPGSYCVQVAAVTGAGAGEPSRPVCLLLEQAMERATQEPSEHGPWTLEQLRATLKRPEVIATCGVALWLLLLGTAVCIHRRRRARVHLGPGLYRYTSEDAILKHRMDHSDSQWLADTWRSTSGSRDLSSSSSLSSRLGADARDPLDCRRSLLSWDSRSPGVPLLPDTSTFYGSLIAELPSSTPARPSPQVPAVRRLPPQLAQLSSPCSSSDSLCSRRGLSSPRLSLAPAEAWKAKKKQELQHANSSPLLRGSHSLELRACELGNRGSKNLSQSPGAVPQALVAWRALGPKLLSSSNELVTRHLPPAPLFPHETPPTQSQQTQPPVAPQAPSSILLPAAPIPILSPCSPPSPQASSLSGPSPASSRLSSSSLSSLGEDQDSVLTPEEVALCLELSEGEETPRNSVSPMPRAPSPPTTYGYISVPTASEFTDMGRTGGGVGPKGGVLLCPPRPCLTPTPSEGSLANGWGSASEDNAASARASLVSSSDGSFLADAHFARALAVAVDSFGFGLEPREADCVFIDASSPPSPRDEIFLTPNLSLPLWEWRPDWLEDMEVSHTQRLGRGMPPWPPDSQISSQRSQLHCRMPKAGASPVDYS
In words: flow cytometry, HEK293 cells transfected with pCI-hROBO4, antibody at 10 µg/mL, anti-mouse IgG FITC; control histogram IgG (Mouse IgG2a). The protocol:
HEK293 cells were inoculated at a concentration of 1.5×10⁶ cells/dish to a 60-mm dish (manufactured by Corning Inc.) and cultured overnight in a DMEM medium containing 10% FBS at 37° C. under 5% CO₂ conditions. On the next day, the HEK293 cells were transfected with pCI-hROBO4, pCI-mROBO4, pCI-raROBO4, pCI-FLAG-cynoROBO4-1, pCI-FLAG-cynoROBO4-2, pCI-hROBO1, pCI-hROBO2, or pCI-hROBO3 using FuGENE6 Transfection Reagent and further cultured overnight at 37° C. under 5% CO₂ conditions. On the next day, the expression vector-transfected cells were treated with TrypLE Express (manufactured by Life Technologies Corp.), washed with PBS containing 5% FBS, and then suspended in PBS containing 5% FBS. The obtained cell suspension was used in flow cytometry analysis.
Each cell suspension prepared in 4)-3-1 was centrifuged, and the supernatant was removed. Then, MAb1 or a negative control Mouse IgG2a was added at a concentration of 10 μg/mL to 2×10⁵ expression vector-transfected cells, and the resulting suspension was left standing at 4° C. for 1 hour. […] Data was analyzed using Flowjo. The histogram of FITC fluorescence intensity was prepared. The antibody was determined to bind in a cross-species manner when the histogram of MAb1 was shifted to a stronger fluorescence intensity region compared with the histogram of the negative control Mouse IgG2a.

B1: humanized MAb1 antibody H-2140 (antibody, human IgG2, kappa, V domains shown)
VH: EVQLVESGGGLVQPGGSLRLSCAASGFTFSTYAMSWVRQAPGKRLEWVATISQGGTYTYYPDSVKGRFTISRDNAKNTLYLQMNSLRAEDTAVYYCARLIYYDYLDYWGQGTLVTVSS
VL: DIVMTQSPLSLPVTLGEPASISCRSSQSLENSNGNTYLNWYLQKPGQSPQLLIYRVSNRFSGVPDRFSGSGSGTDFTLKISRVEAEDVGVYYCLQVTHVPWTFGPGTKVDIKR
notes: Human IgG2 / kappa constant regions; also called hMAb1-H4-type heavy chain + hMAb1-L1-type light chain
Regarding B1, the binding result in assay [1] was “no binding (tested: 10 µg/mL)”.

B2: anti-ROBO4 mouse monoclonal antibody MAb1 (antibody, mouse IgG1, V domains shown)
VH: EVQLVESGGGLVKPGGSLKLSCAASGFTFSTYAMSWVRQTPEKRLEWVATISNGGTYTYYPDSVKGRFTISRDNAENTLYLQMSSLRSEDTAMYFCARLIYYDYLDYWGHGTTLTVSS
VL: DAVMTQTPLSLPVSLGDQASISCRSSQSLENSNGNTYLNWYFQKPGQSPQLLIYRVSNRFSGVLDRFSGSGSGTDFTLKISRVEAEDFGVYFCLQVTHVPWTFGGGTKLEIKR
notes: Mouse IgG1 (gamma1), kappa light chain, purified from hybridoma supernatant; also called parent antibody MAb1
For B2, the binding result in assay [2] is “binds”.
